Molecular target: recombinant human Aβ42 sodium hydroxide (NaOH) salt (human) (UniProt P05067)

Chain of recombinant human apoE4 (P02649 19-317): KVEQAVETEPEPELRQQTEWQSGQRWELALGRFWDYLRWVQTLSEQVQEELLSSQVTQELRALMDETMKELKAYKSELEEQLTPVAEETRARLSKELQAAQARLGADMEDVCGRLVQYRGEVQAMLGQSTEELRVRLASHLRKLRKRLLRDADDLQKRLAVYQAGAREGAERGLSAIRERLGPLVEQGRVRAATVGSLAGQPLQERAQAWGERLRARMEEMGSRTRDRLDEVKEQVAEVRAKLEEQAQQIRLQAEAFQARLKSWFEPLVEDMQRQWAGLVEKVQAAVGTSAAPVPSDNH

recombinant human apoE4 (from UniProt P02649 19-317) (natural protein)
> 30%: reduction of apoE4-catalyzed Aβ42 fibrillization (ThT, HTS assay) by imipramine at 0.25, 2.5 and 25 μM; no effect on Aβ42 alone | reduction of apoE4-catalyzed Aβ42 fibrillization (ThT, HTS assay) by olanzapine at 0.25, 2.5 and 25 μM; no effect on Aβ42 alone | reduction of apoE4-catalyzed Aβ42 fibrillization (ThT, HTS assay) by sulfacetamide at 0.25, 2.5 and 25 μM; no effect on Aβ42 alone
